{
  "source": "patent US20010016194A1",
  "about": "(priority 1999, published 2001)",
  "key": {"[1]": {"biological_target": "T1, Raf-1 serine/threonine kinase (Homo sapiens, UniProt P04049)", "T1 construct": "endogenous in cells; host or cells: human T-cell lysate (Raf-1); BL-21 pLysS bacteria (IL-2Rβ fusion)", "T1 sequence (P04049 whole entry, the tested form may be a part)": "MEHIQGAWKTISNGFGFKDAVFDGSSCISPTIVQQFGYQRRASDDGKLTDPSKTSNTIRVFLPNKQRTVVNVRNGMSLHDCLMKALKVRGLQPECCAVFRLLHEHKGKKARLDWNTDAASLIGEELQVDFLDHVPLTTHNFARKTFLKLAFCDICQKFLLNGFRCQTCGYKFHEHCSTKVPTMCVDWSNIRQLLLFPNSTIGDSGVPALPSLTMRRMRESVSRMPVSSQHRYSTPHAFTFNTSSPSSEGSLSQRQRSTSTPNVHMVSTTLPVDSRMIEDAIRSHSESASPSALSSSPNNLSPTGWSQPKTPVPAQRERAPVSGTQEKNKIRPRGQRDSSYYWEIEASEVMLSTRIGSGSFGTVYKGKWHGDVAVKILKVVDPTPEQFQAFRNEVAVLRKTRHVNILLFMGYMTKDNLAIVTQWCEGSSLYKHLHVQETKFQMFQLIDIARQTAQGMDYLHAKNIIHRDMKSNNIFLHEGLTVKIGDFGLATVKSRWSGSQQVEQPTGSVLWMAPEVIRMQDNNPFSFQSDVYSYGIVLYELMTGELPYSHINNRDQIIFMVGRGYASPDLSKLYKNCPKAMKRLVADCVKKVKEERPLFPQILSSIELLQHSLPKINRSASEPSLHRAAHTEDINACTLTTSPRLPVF", "assay": "Serine/threonine kinase assay on T-cell proteins retained by FLAG-HMK-IL-2Rβ chain, with or without genistein, Histone H1 substrate", "assay_type": "biochemical", "details": "genistein 10 μg/ml; T-cell proteins bound to IL-2Rβ chain", "procedure": "The kinase reaction was initiated by the addition of 1 μCi of […] and 25 μM ATP. After 30 min at 24° C., the reaction was stopped by addition of reducing SDS-PAGE sample buffer and boiling.\n(ii) Kinase reaction performed in the presence of Histone-H-1. There is an increased, genistein (tyrosine kinase inhibitor)-independent phosphorylation of Histone-H-1 in T-cell lysates retained on affinity beads coated with FLAG-HMK-IL-2Rβ chain. Control affinity beads coated with proteins isolated from bacteria transformed with vector alone and exposed to T-cell lysates retain only background level of serine/threonine kinase activity. These experiments were repeated a number of times. The results of a representative experiment are shown in FIG. 5 which is a reproduction of an autoradiogram of the products of the kinase reaction performed, in the presence of Histone H-1, on anti-FLAG beads coated with the IL-2Rβ chain construct (WT) and exposed to T-cell lysates in the presence of genistein (lane 3), or in the absence of genistein (lane 2) and then subjected to SDS-PAGE and autoradiography. The control (lane 1) was carried out with the FLAG-HMK vector alone (no insert)."}, "Raf-1 / IL-2Rβ chain": {"tested_on": "Raf-1 / IL-2Rβ chain", "details": "IL-2 stimulation; cited from earlier work"}, "[2]": {"biological_target": "T2, Raf-1/14-3-3 binding to the IL-2Rb chain (Homo sapiens, UniProt P14784)", "T2 construct": "constructs encoding full-length or deletional mutants of the human IL-2Rβ chain; expressed in transfected cells; host or cells: COS cells, pRcCMV-IL-2Rβ, with or without lck or fyn", "T2 sequence (P14784 27-551)": "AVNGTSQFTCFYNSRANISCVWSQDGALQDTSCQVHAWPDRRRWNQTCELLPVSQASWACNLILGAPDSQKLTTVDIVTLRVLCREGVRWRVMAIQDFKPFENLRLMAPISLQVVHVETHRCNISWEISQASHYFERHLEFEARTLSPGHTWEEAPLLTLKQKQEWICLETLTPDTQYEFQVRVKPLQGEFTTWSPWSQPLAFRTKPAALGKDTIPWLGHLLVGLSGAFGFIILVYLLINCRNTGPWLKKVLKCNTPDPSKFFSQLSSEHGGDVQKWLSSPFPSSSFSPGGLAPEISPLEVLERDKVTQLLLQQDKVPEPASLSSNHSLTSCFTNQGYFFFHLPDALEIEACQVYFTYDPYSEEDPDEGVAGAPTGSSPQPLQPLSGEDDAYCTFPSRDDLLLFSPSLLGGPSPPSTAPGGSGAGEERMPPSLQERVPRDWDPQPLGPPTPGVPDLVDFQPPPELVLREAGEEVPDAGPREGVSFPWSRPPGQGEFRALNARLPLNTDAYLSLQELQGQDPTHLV", "assay": "COS cells co-transfected with IL-2Rβ chain and lck or fyn, immunoprecipitates probed for Raf-1 and 14-3-3", "assay_type": "cell-based", "details": "co-transfection of COS cells, FIG. 10a", "description": "In order to perform this examination, COS cells were transfected with IL-2Rβ chain alone, or co-transfected with lck or fyn, then […] with anti-IL-2Rβ chain antibody. The immunoprecipitates were then probed for the presence of Raf-1 and 14-3-3 proteins by immunoblotting (all procedures as detailed hereinabove)."}, "[3]": {"biological_target": "T3, IL-2Rβ chain/Raf-1/14-3-3 complexes (Homo sapiens, UniProt P14784)", "T3 construct": "construction of plasmid FLAG-HMK-IL-2Rβ chain cytoplasmic domain wild type (FLAG-HMK-IL-2Rβ-WT); made in house; host or cells: bacterial lysates (BL-21 pLysS for the IL-2Rβ fusion, M15 for Raf-1)", "T3 sequence (P14784 266-551 limits assumed)": "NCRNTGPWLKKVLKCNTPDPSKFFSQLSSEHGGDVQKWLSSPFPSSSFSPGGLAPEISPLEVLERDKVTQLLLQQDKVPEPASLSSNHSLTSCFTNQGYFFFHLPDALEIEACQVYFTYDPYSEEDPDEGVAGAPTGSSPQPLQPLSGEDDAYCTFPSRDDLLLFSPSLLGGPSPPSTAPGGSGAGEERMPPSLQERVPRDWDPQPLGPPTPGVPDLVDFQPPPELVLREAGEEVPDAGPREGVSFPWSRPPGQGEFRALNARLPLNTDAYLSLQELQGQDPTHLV", "assay": "Pre-formed IL-2Rβ chain/(His)6 Raf-1/bacterial 14-3-3 complexes exposed to catalytically active p56lck in vitro", "assay_type": "biochemical", "details": "enzymatically active kinase, FIG. 10b", "procedure": "The results of this examination are shown in FIG. 10a which is a reproduction of the above immunoblot. […] In addition, a study of the dissociation of pre-formed IL-2Rβ chain/Raf-1/14-3-3 complexes by enzymatically active p56^lck was also carried out. Pre-formed IL-2Rβ chain/(His)6 Raf-1/bacterial 14-3-3 complexes were prepared (see above in respect of FIGS. a-c), exposed to catalytically active p56^lck (Upstate Biotechnology), washed and eluted with FLAG peptide. Eluates were separated on SDS-PAGE and tested for the presence of Raf-1 proteins. The results of this study are shown in FIG. 10b which is a reproduction of an SDS-PAGE gel in which is depicted the Raf-1 bands. […] Since there is no indication that p56^lck interacts with Ras-like sequence of the IL-2Rβ chain, it seems that binding of Raf-1 and p56^lck to distinct subdomains of the same A-region, co-localize kinase and its substrate for fast enzymatic reaction occurring during IL-2R activation."}},
  "note": "Entries after “also recorded” stand apart in the source; their conditions may differ.",
  "data": [
    {"molecule": "O=c1c(-c2ccc(O)cc2)coc2cc(O)cc(O)c12", "note": "[genistein]", "values": [
      {"measurement": "effect of genistein on serine/threonine kinase activity (Histone H1 phosphorylation)", "setting": "[1]", "value": "not inhibited; also recorded: independent"},
      {"measurement": "dissociation of enzymatically active Raf-1 from the IL-2Rβ chain", "setting": "Raf-1 / IL-2Rβ chain", "value": "completely abolished"}
    ]},
    {"molecule": "p59^fyn: another src-like kinase, co-transfected in COS cells", "values": [
      {"measurement": "effect on Raf-1/14-3-3 binding to the IL-2Rb chain", "setting": "[2]", "value": "did not cause this dissociation"}
    ]},
    {"molecule": "p56^lck: src-family protein tyrosine kinase; catalytically active enzyme from Upstate Biotechnology or co-transfected in COS cells", "values": [
      {"measurement": "effect on Raf-1/14-3-3 binding to the IL-2Rb chain", "setting": "[2]", "value": "abrogation of Raf-1/14-3-3 binding"},
      {"measurement": "dissociation of pre-formed IL-2Rβ chain/Raf-1/14-3-3 complexes", "setting": "[3]", "value": "dissociation"}
    ]}
  ]
}
